B1: TPR t1 (parent)
chain: GACCAAUCUGCCCUCAGAGCUCGAGAACAUCUUCGGAUGCAGAGGAGGCAGGCUUCGGUGGCGCGAUAGCGCCAACGUCCUCAACCUCCAAUGCAUCCCACCACAUGAUGAUGCCUGAAGAGCCUUGGUUUUUUG

Variants of: B1
Assay: polymerase ribozyme fitness, log enrichment relative to wild type (log ratio); higher = more active; in vitro selection for triplet polymerase activity
Method in brief: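 Streptavidin-bead capture of gel-excised extended constructs, followed by RT-PCR, closed a single triplicate in vitro selection round. That round began by annealing PCR-built, transcribed mutant libraries of each subunit of a heterodimeric triplet polymerase ribozyme with a biotinylated primer, the partner subunit and triplets, then incubating them frozen at −7 °C. After Illumina sequencing of inputs and outputs, genotypes needed ≥10 input reads and ≥1 read per output. Fitness is the base-2 logarithm of genotype enrichment over wild-type enrichment, using inverse-variance-weighted replicate averages.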

Row | Variant | polymerase ribozyme fitness (log ratio)
1 | A46G C53A G135U | -1.55
2 | A46U C115U | -2.18
3 | G47U C72U C94A | -2.85
4 | G47C G58A | -1.77
5 | A46U G48A C79G C82U G120A C123A | -3.09
6 | G45U C104U C124A | -1.14
7 | G47U A100C U106A C124G | 0.694
8 | A46U G52U G71U C123A | -2.41
9 | A46U G61A G110U G120C G122A | -4.73
10 | G47U C98U | -4.36
11 | A46U C49U | -1.49
12 | G47A G51A | -4.37
13 | G45U G48A G69U | -0.269
14 | A46U A111C C124G U131A U132C | -0.582
15 | G47A C49A C124U | 0.655
16 | G47U C72U U78C G113C | -3.65
17 | A46U C94G C98U | -4.76
18 | G47A C82G C123G U125A | -1.38
19 | G45C C115A U130C | -2.49
20 | A46C C49U A121U | 0.936
21 | A46U C99U | -4.49
22 | G47A A50U | -1.57
23 | G45U G48A | -1.51
24 | A46U C56A | -1.15

Row | Variant | polymerase ribozyme fitness (log ratio)
25 | A46C C56U G63A C114G G127C U129A | -5.93
26 | G47U G69U | -0.915
27 | G45U C64U U81A | -2.88
28 | G45U C56A C73G | -2.79
29 | G45U A50G | -1.25
30 | G45A G69A | -3.01
31 | G45C A84G C97A | -6.72
32 | G45A G107A A121C | -6.43
33 | G45U C85G G122A | -3.83
34 | A46C C62U C86U C97U A111U C124U | -5.27
35 | A46U G57C A84U C114U | -3.16
36 | G47A G48C A100U U112A | -0.897
37 | G47U G61U G110A | -3.87
38 | A46U C62G C88A C124A U133G | -4.11
39 | A46C C86U A95G C114G | -3.71
40 | G47A C79U | -1.59
41 | A46U C64U A90U U96A U106A U131A | -3.76
42 | G47U G51U G60C | -3.98
43 | A46C A100U U131G | -1.22
44 | G45C G47U A50G G57U | -3.62
45 | G47C C72U C94U | -2.45
46 | G45U C123U G127U | -1.39
47 | G47U C115A | -2.9
48 | A46U C104U | -0.991

Row | Variant | polymerase ribozyme fitness (log ratio)
49 | G47U C49G | -0.991
50 | G45A G61U C70U G110U U125C | -3.2
51 | G45C C114A | -2.66
52 | A46G A90G C101U U106A | -0.372
53 | G47U C88G U96A U112A | -6.98
54 | G47A C114A C123G U125A | -2.46
55 | G47C A50U C72U U81C C114U | -5.1
56 | G47U C114A | -2.77
57 | G47U C114U | -3.33
58 | G45U G93C | -0.927
59 | G47A A91C G117U U133G | -4.6
60 | G45U C114U | -3.17
61 | G47A C124U | 0.0616
62 | G45U C123U | -0.952
63 | G45U G110U | -2.75
64 | G45U A84C C86A G117A | -3.94
65 | A46U G110U G120C G122A | -5.9
66 | A46G A105C | -1.62
67 | A46U C56U C114A | -2.28
68 | G45U C73U C79A | -2.93
69 | G45U C73U G110A G122A G128C | -6.61
70 | G45U C72U G120A | -0.418
71 | G45C A46C A105C | -5.01
72 | G47U C53U C79A | -4.4

Row | Variant | polymerase ribozyme fitness (log ratio)
73 | G47A C86A A90G G117U G120C | -0.329
74 | A46C C102A G120U C123A | -2.45
75 | G45U U112A | 0.359
76 | A46C C56G C72G U87A A100U | -1.12
77 | G45U U106A | -1.76
78 | A46U A91G C123G | -1.65
79 | G47U G71A U87A | -4.27
80 | G47C C56G C72G C82U C97U U112A | -2.21
81 | A46U C79U U96A C115U C123G U132A | -2.94
82 | A46G G63U A121U U126A | 0.154
83 | A46U C114U | -2.76
84 | G45C G61C U131G | -1.96
85 | G45U U59G U112A | -0.539
86 | A46U C70A C85U | -3.76
87 | G47U C80G U87A C101U C123A G127A | -5.76
88 | A46G G60U | -0.448
89 | A46G G61A A100C U132C | -0.683
90 | G47A G60A C124G U133A | 1.3
91 | G45U G52A C62U U96G | -2.4
92 | G45U U106A U129C | -1.68
93 | G45A U59G G60A A100U | -2.28
94 | G45U C72A C88A G93A G107U A111C | -5.12
95 | G45C U87C | -0.513
96 | A46U C70G C85U C104G | -7.09

Row | Variant | polymerase ribozyme fitness (log ratio)
97 | G47C G48A C86U A90U | -2.46
98 | A46U U78C G113A | -2.45
99 | A46G C72G C85G | -4.41
100 | A46G C73U U87A A91C G113A | -2.54
101 | A46U G48U C76A U78C C82U | -5.9
102 | A46C G48U G113A | -3
103 | G47U G48U U59A C79U | -3.11
104 | G47C G113C | -3.85
105 | G47C G113U | -4.11
106 | A46C G57A C62G A121G | -1.34
107 | G47A G51A G71U C98U A105U U112G | -7.71
108 | A46U G71C U78A C86A | -1.63
109 | G45C G47A | -3.52
110 | G45C C49U C97U A100U A121C U133C | -0.146
111 | A46U A121U | 0.389
112 | G45C U130C | -2.26
113 | A46U C62G C88A C124A | -4.36
114 | G47A A103C G122A | -6.8
115 | A46U G117A U133G | -2.73
116 | G47U G120A | -0.734
117 | G47A G135U | -2.25
118 | G47C C86U A105U A121C | -1.01
119 | G45U G60U | -0.287
120 | G47C C70U C89U | -4.18

Row | Variant | polymerase ribozyme fitness (log ratio)
121 | G47C A111U | -4.54
122 | G45U G71A | -2.09
123 | G47A G52A G120A | -0.716
124 | A46U G52U C123A | -3.01
125 | G45C C70U A83C | -1.86
126 | G47U C101U U125G U126C | -2.99
127 | G45C U54C C73A U81A G93C A111C | -4.76
128 | G45U C56G G77A C101U U112C | 0.372
129 | G47A C70U | -1.86
130 | A46G C64U | -0.426
131 | G45C G69A G117U | -6.59
132 | A46C U87A C123U U132A | 1.86
133 | G45C C49A C76U C102A | -3.88
134 | A46U C53U G69C U87C | -2.13
135 | A46U G71U | -1.16
136 | G45U A74G U132A | -2.04
137 | G45U G63U G113A | -3.01
138 | A46G G47C U96A | -3.35
139 | A46G U59A | -0.58
140 | A46C C115G G117A | -4.09
141 | A46C C56G C70A | -5.02
142 | A46U C89U A111U | -5.27
143 | A46G A50G U87C | -0.00584
144 | G45U C64U | -0.713

Row | Variant | polymerase ribozyme fitness (log ratio)
145 | G47C C70U | -2.2
146 | G45C U126A | -2.8
147 | G45A G71A G113A C124U | -2.34
148 | G45U G63A U78G G120C | -1.71
149 | G47U C53A U129G | -2.44
150 | G45A U81G | -3.71
151 | G47U G61C U126G | -4.45
152 | A46U A66C C123G C124A | 0.0849
153 | G45A G69U C99U A111G | -0.775
154 | G47C U55G G63A C104U | -3.2
155 | G47U C73G C82U | -2.22
156 | A46U A103C C115G | -6.95
157 | G47A G61A U116A U129A | -4.01
158 | G45U A91C | -2.07
159 | G47A A50U G60C G77A | -5
160 | A46U G48A | -2.28
161 | G47A U96G G110A | -3.19
162 | G47A G61A C85A C98A | -6.7
163 | A46C G48A | -1.9
164 | G45C U55C A119U | -2.39
165 | G45C G93U A121U | -1.16
166 | G47U G117U | -2.78
167 | G45A G120C | 0.183

From the RNAGym collection of RNA variant scans (doi:10.1073/pnas.2313332121)
